# Biological target: 14-3-3 proteins
# Experiment: Western blot of purified virions, quantified
# Conditions: read off a plot
row,Substance,ratio to parent
1,UL32 (also known as pp150) 3/4mut,0.06
2,UL32 (also known as pp150) 3mut,0.48
3,UL32 (also known as pp150) 4/5mut,0.02

# From PMC10465357
